Experimental findings from PMC11681868 (2024) are described below.

In one experiment the target is G11. Put plainly: ITC.
For the next experiment, the target named is A3. Put plainly: ITC. (In ITC the heat of successive injections is recorded.)

Where no end group is shown, it is not given here. [ ]: non-standard residue; d: D form. pS = N[C@@H](COP(=O)(O)O)C(=O)O

As usually defined, the Kd is the concentration at which binding is half-saturated. On to RPHFPQF[pS]YSAS [phosphorylated Akt peptide], for which the Kd with G11 worked out at 18.1 nM; with A3, 31.8 nM.
